Results: US20150247163
Numbering of substitutions follows the chain as printed. Numbers in names are those of the source.

How the values were obtained:
[1] = target: T1, PBS1^RCS2-HA (PBS1 in which the AvrPphB cleavage site GDKSHVS is replaced with the RIN4 cleavage site 2 VPKFGDW, fused to a C-terminal 3xHA epitope)
T1 chain: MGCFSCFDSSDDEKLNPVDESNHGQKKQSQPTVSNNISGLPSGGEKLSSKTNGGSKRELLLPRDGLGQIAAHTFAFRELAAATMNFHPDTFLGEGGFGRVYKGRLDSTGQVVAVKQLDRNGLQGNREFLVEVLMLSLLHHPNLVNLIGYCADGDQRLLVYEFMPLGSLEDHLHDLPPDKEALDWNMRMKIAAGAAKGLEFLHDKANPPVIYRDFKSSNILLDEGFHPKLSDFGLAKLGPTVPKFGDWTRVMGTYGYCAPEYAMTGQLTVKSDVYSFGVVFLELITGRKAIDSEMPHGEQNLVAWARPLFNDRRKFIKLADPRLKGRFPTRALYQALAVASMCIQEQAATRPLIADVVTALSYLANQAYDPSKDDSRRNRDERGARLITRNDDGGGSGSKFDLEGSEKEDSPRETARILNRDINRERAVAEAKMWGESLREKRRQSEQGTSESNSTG

[2] = target: T2, wild-type PBS1 (AvrPphB susceptible 1), Q9FE20
T2 chain: T1 chain with V241G, P242D, F244S, G245H, D246V, W247S

[3] = target: T3, PBS1^TCS-HA (PBS1 in which the seven amino acids flanking the AvrPphB cleavage site are replaced with a TEV cleavage site, fused to 3xHA)
T3 chain: T1 chain with V241E, P242N, K243L, F244Y, G245F, D246Q, W247G

B1: AvrRpt2 (Example 1 pTA7002 construct; also as delivered by P. syringae DC3000(avrRpt2)) (protein)
chain: MKIAPVAINHSPLSREVPSHAAPTQAKQTNLQSEAGDLDARKSSASSPETRALLATKTVLGRHKIEVPAFGGWFKKKSSKHETGGSSANADSSSVASDSTEKPLFRLTHVPYVSQGNERMGCWYACARMVGHSVEAGPRLGLPELYEGREGPAGLQDFSDVERFIHNEGLTRVDLPDNERFTHEELGALLYKHGPIIFGWKTPNDSWHMSVLTGVDKETSSITFHDPRQGPDLAMPLDYFNQRLAWQVPHAMLYR
B1 was tested, and the “cleavage product by anti-HA immunoprecipitation and immunoblot, transgenic Arabidopsis line #5, 12 hours after inoculation” value [1] was “a cleavage product of PBS1^RCS2 was detected in transgenic line #5 twelve hours after inoculation with DC3000(avrRpt2), but not with DC3000 lacking avrRpt2”.

B2: C122A (protease-deficient mutant form of AvrRpt2) fused to 5xMyc (protein)
chain: B1 chain with C122A
In the case of B2, the “cleavage by immunoblot, 24 hours post-induction” value [1] is reported as “even C122A induced small amounts of cleavage”.

B3: AvrRpt2 fused to 5xMyc (Example 5 construct) (protein)
chain: B1 chain
In the case of B3, the “cleavage by immunoblot, 6 hours post-induction” value [1] is reported as “AvrRpt2 cleaved PBS1^RCS2 at 6 hours post-induction” and the “cleavage by immunoblot, 24 hours post-induction” value [1] is reported as “At 24 hours post-induction, AvrRpt2-induced cleavage was increased”.

B4: TEV protease (NIa protease of Tobacco Etch Virus) fused to 5xMyc (protein)
chain: GESLFKGPRDYNPISSTICHLTNESDGHTTSLYGIGFGPFIITNKHLFRRNNGTLLVQSLHGVFKVKNTTTLQQHLIDGRDMIIIRMPKDFPPFPQKLKFREPQREERICLVTTNFQTKSMSSMVSDTSCTFPSSDGIFWKHWIQTKDGQCGSPLVSTRDGFIVGIHSASNFTNTNNYFTSVPKNFMELLTNQEAQQWVSGWRLNADSVLWGGHKVFMSKPEEPFQPVKEATQLMNELVYSQ
With B4 the cleavage by immunoblot [2] was “TEV protease did not cleave wild-type PBS1” and the “cleavage by immunoblot, 6 hours post induction” value [3] was “TEV protease cleaved PBS1^TCS 6 hours post induction”.
